Experimental data published in US20220220224A1 (Hoffmann-La Roche, published 2022).
Residue numbers refer to the chain shown, from its start. Numbers in names are those of the source. Where two headings read alike, the source gives them in different places.

Experiments:
[1] = molecular target: T1, human FolR1 expressed on cells (HeLa, SKOV3, HT-29, transfected HEK cells) (human, UniProt P15328 25-234); experiment: cell-based or functional assay
[2] = molecular target: T1, human FolR1 expressed on cells (HeLa, …); experiment: cell-based or functional assay; remark: listed apart in the source
[3] = molecular target: T1, human FolR1 expressed on cells (HeLa, …); experiment: cell-based or functional assay; remark: listed apart in the source
[4] = molecular target: T2, recombinant biotinylated monomeric Fc fusion of human Folate Receptor 1 (huFolR1 ECD-AcTev-Fcknob-Avi tag … (human, UniProt P0DOX5 223-449 = IgG part, biotin on the C-terminal Avi tag)); experiment: SPR Biacore, avidity (bivalent)
T2 construct: also called huFolR1-Fc; human FolR1-Fc

[5] = molecular target: T2, recombinant biotinylated monomeric Fc …; experiment: SPR Biacore, affinity (monovalent)
[6] = molecular target: T3, recombinant biotinylated monomeric Fc fusion of murine Folate Receptor 1 (mu FolR1 ECD-AcTev-Fcknob-Avitag … (murine, UniProt P0DOX5 223-449 = IgG part, biotin on the C-terminal Avi tag)); experiment: SPR Biacore, single injection on immobilized antigen-Fc
T3 construct: also called muFolR1-Fc; murine FolR1
Description: (§1) All SPR experiments were performed on a Biacore T200 at 25° C. with HBS-EP as running buffer (0.01 M HEPES pH 7.4, 0.15 M NaCl, 3 mM EDTA, 0.005% Surfactant P20, Biacore, GE Healthcare). The molecules used for affinity and avidity determination are described in Table 45.
(§2) First the anti-FolR1 TCBs were analyzed by single injections (Table 46) to characterize their crossreactivity (to human, murine and cyno FolR1) and specificity (to human FolR1, human FolR2, human FolR3). Recombinant biotinylated monomeric Fc fusions of human, cynomolgus and murine Folate Receptor 1 (FolR1-Fc) or human Folate Receptor 2 and 3 (FolR2-Fc, FolR3-Fc) were directly coupled on a SA chip using the standard coupling instruction (Biacore, Freiburg/Germany). The immobilization level was about 300-400 RU. The TCBs were injected for 60 seconds at a concentration of 500 nM.

[7] = molecular target: T4, recombinant biotinylated monomeric Fc fusion of human Folate Receptor 2 (hu FolR2 ECD-AcTev-Fcknob-Avi tag … (human, UniProt P0DOX5 223-449 = IgG part, biotin on the C-terminal Avi tag)); experiment: as above
T4 construct: also called FolR2-Fc
Description: as §1, §2

[8] = molecular target: T5, recombinant biotinylated monomeric Fc fusion of human Folate Receptor 3 (hu FolR3 ECD-AcTev-Fcknob-Avi tag … (human, UniProt P0DOX5 223-449 = IgG part, biotin on the C-terminal Avi tag)); experiment: as above
T5 construct: also called FolR3-Fc
Description: as §1, §2

[9] = molecular target: T2, recombinant biotinylated monomeric Fc …; experiment: SPR Biacore, affinity (monovalent), antibody captured via anti-Fab
Description: as §1
(§3) For affinity measurement, direct coupling of around 12000 resonance units (RU) of the anti-human Fab specific antibody (Fab capture kit, GE Healthcare) was performed on a CM5 chip at pH 5.0 using the standard amine coupling kit (GE Healthcare). Anti-FolR1 T cell bispecifics were captured at 20 nM with a flow rate of 10 μl/min for 40 sec, the reference flow cell was left without capture. […] The dissociation phase was monitored for 300 s and triggered by switching from the sample solution to HBS-EP. The chip surface was regenerated after every cycle using a double injection of 60 sec 10 mM Glycine-HCl pH 2.1. Bulk refractive index differences were corrected for by subtracting the response obtained on the reference flow cell 1. The affinity constants for the interactions were derived from the rate constants by fitting to a 1:1 Langmuir binding using the Bia Evaluation software (GE Healthcare). For low affinity kinetics with association and dissociation phases too fast to be fitted by the 1:1 Langmuir binding model, the steady state analysis model was applied using the Bia Evaluation software (GE Healthcare). The steady state analysis gives the KD of the binding reaction at equilibrium.

[10] = molecular target: T6, recombinant biotinylated monomeric Fc fusion of cynomolgus Folate Receptor 1 (cy FolR1 ECD-AcTev-Fcknob-Avi … (cynomolgus, UniProt P0DOX5 223-449 = IgG part, biotin on the C-terminal Avi tag)); experiment: as above
T6 construct: also called cyFolR1-Fc; cyno FolR1
Description: as §1, §3

[11] = molecular target: T2, recombinant biotinylated monomeric Fc …; experiment: SPR Biacore, avidity (bivalent, apparent KD), antigen-Fc on SA chip
Description: as §1
(§4) Recombinant biotinylated monomeric Fc fusions of human, cynomolgus and murine Folate Receptor 1 (FolR1-Fc) were directly coupled on a SA chip using the standard coupling instruction (Biacore, GE Healthcare). The immobilization level was about 200-300 RU. […] The dissociation was monitored for 240 or 600 seconds. The chip surface was regenerated after every cycle using a double injection of 30 sec 10 mM Glycine-HCl pH 1.5. Bulk refractive index differences were corrected for by subtracting the response obtained on reference flow cell immobilized with recombinant biotinylated murine IL2R Fc fusion (unrelated Fc fused receptor). The binding curves resulting from the bivalent binding of the T cell bispecifics were approximated to a 1:1 Langmuir binding (even though it is a 1:2 binding) and fitted with that model to get an apparent KD representing the avidity of the bivalent binding. The apparent avidity constants for the interactions were derived from the rate constants of the fitting using the Bia Evaluation software (GE Healthcare).

[12] = molecular target: T6, recombinant biotinylated monomeric Fc …; experiment: as above
Description: as §1, §4

[13] = molecular target: T4, recombinant biotinylated monomeric Fc …; experiment: SPR Biacore, single injection on immobilized antigen-Fc; remark: listed apart in the source
Summary of the method: (§5)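 Biacore T200 at 25 °C in HBS-EP (HEPES pH 7.4). Biotinylated FolR-Fc fusions captured on SA chip at about 300-400 RU. IgGs injected once at 500 nM for 60 s to assess cross-reactivity and specificity.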

[14] = molecular target: T5, recombinant biotinylated monomeric Fc …; experiment: as above; remark: listed apart in the source
Summary of the method: as §5

[15] = molecular target: T3, recombinant biotinylated monomeric Fc …; experiment: SPR Biacore, single injection 500 nM on immobilized antigen-Fc
Description: Binding of FolR1 binders as IgG or in the T-cell bispecific format to different recombinant folate receptors (human FolR1, 2 and 3, murine FolR1 and cynomolgus FolR1; all as Fc fusions) was assessed by surface plasmon resonance (SPR). All SPR experiments were performed on a Biacore T200 at 25° C. with HBS-EP as running buffer (0.01 M HEPES pH 7.4, 0.15 M NaCl, 3 mM EDTA, 0.005% Surfactant P20, Biacore, Freiburg/Germany).
as §2, with “IgGs” for “TCBs”, “1)” for “46)”

[16] = molecular target: T2, recombinant biotinylated monomeric Fc …; experiment: SPR Biacore, avidity set-up, steady state
Description: (§6) The avidity of the interaction between the anti-FolR1 IgGs or T cell bispecifics and the recombinant folate receptors was determined as described below (Table 41).
(§7) Recombinant biotinylated monomeric Fc fusions of human, cynomolgus and murine Folate Receptor 1 (FolR1-Fc) were directly coupled on a SA chip using the standard coupling instruction (Biacore, Freiburg/Germany). The immobilization level was about 300. […] The dissociation was monitored for 240 or 600 seconds. Bulk refractive index differences were corrected for by subtracting the response obtained on reference flow cell immobilized with recombinant biotinylated murine IL2 receptor Fc fusion. The binding curves resulting from the bivalent binding of the IgG or T cell bispecifics were approximated to a 1:1 Langmuir binding (even though it is a 1:2 binding) and fitted with that model to get an apparent KD representing the avidity of the bivalent binding. The apparent avidity constants for the interactions were derived from the rate constants of the fitting using the Bia Evaluation software (GE Healthcare). For low affinity kinetics with association and dissociation phases too fast to be fitted by the 1:1 Langmuir binding model, the steady state analysis model was applied using the Bia Evaluation software (GE Healthcare). The steady state analysis gives the KD of the binding reaction at equilibrium.

[17] = molecular target: T6, recombinant biotinylated monomeric Fc …; experiment: SPR Biacore, avidity set-up, steady state
Description: as §6, §7

T1 sequence (P15328 25-234): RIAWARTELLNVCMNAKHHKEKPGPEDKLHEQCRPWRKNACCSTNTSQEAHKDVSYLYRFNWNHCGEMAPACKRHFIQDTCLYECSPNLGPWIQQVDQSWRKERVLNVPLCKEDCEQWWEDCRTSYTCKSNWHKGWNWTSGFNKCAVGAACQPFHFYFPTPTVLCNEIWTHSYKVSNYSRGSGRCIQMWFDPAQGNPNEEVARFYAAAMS

B1: 9D11 TCB S100aA (CD3 deamidation variant) (bispecific antibody, human IgG1, kappa, L234A L235A)
heavy 1: not shown
heavy 2: QVQLVQSGAEVKKPGASVKVSCKASGYTFTSYYMHWVRQAPGQGLEWMGIINPSGGPTSYAQKFQGRVTMTRDTSTSTVYMELSSLRSEDTAVYYCARGDFAWLDYWGQGTLVTVSSASTKGPSVFPLAPSSKSTSGGTAALGCLVKDYFPEPVTVSWNSGALTSGVHTFPAVLQSSGLYSLSSVVTVPSSSLGTQTYICNVNHKPSNTKVDKKVEPKSCDKTHTCPPCPAPEAAGGPSVFLFPPKPKDTLMISRTPEVTCVVVDVSHEDPEVKFNWYVDGVEVHNAKTKPREEQYNSTYRVVSVLTVLHQDWLNGKEYKCKVSNKALGAPIEKTISKAKGQPREPQVCTLPPSRDELTKNQVSLSCAVKGFYPSDIAVEWESNGQPENNYKTTPPVLDSDGSFFLVSKLTVDKSRWQQGNVFSCSVMHEALHNHYTQKSLSLSPGK
light 1: not shown
light 2: QAVVTQEPSLTVSPGGTVTLTCGSSTGAVTTSNYANWVQEKPGQAFRGLIGGTNKRAPGTPARFSGSLLGGKAALTLSGAQPEDEAEYYCALWYSNLWVFGGGTKLTVLSSASTKGPSVFPLAPSSKSTSGGTAALGCLVKDYFPEPVTVSWNSGALTSGVHTFPAVLQSSGLYSLSSVVTVPSSSLGTQTYICNVNHKPSNTKVDKKVEPKSC
With B1 as the binder, how does the “EC50 of T-cell killing of SKov-3, 24 h” value [1] read?
The value was 1.94 pM.

B2: 16D5 G49S/S93A TCB (2+1 inverted, common light chain) (bispecific antibody, V domains shown)
VH 1: not shown
VL: QTVVTQEPSLTVSPGGTVTLTCGSSTGAVTTSNYANWVQQKPGQAPRGLIGGTNKRAPGTPARFSGSLLGGKAALTLSGVQPEDEAEYYCALWYANLWVFGGGTKLTVL
VH 2: not shown
Which “EC50 of T-cell killing of Hela, 24 h” value [2] does the source give for B2 here?
Its value is 2.3 pM.

What about the “EC50 of T-cell killing of SKov-3, 24 h” value [2] of the same binder?
Its value is 430 pM.

What about the “EC50 of T-cell killing of HT-29, 48 h” value [3] of the same binder?
The value was 99.3 pM.

And the “EC50 of T-cell killing of Hela, 48 h” value [3]?
The value was 0.9 pM.

And the “EC50 of T-cell killing of SKov-3, 48 h” value [3]?
Its value is 95.9 pM.

What about the “fold lower avidity than 16D5 WT (3 nM)” value [4] of the same binder?
Its value is 3 fold.

What about the “fold lower affinity than 16D5 WT (57 nM)” value [5] of the same binder?
Its value is 14.5 fold.

Does B2 bind [6]?
Result: no binding (tested: 500 nM)

Does B2 bind [7]?
Result: no binding (tested: 500 nM)

Does B2 bind [8]?
Result: no binding (tested: 500 nM)

And the Kd [9]?
Its Kd is 830 nM.

And the koff [9]?
Its koff is 0.00837 s⁻¹.

What about the kon [9] of the same binder?
The kon was 10100 M⁻¹ s⁻¹.

And the Kd [10]?
The Kd was 420 nM.

What about the koff [10] of the same binder?
The koff was 0.0086 s⁻¹.

And the kon [10]?
The kon was 20500 M⁻¹ s⁻¹.

And the Kd [11]?
Its Kd is 10 nM.

What about the koff [11] of the same binder?
The koff was 0.00209 s⁻¹.

And the kon [11]?
The kon was 149000 M⁻¹ s⁻¹.

And the Kd [12]?
Its Kd is 20 nM.

And the koff [12]?
Its koff is 0.00784 s⁻¹.

And the kon [12]?
Its kon is 454000 M⁻¹ s⁻¹.

B3: 20H7 IgG (antibody, V domains shown)
VH: QVQLVQSGAEVKKPGASVKVSCKASGYTFTSYYMHWVRQAPGQGLEWMGIINPSGGSTSYAQKFQGRVTMTRDTSTSTVYMELSSLRSEDTAVYYCARVGWYRWGYMDYWGQGTLVTVSS
VL: B2 VL with T2A, Q40E, P46F, V80A, A95S
notes: human IgG1
Does B3 bind [13]?
Result: no binding (tested: 500 nM)

Does B3 bind [14]?
Result: no binding (tested: 500 nM)

Does B3 bind [15]?
Result: binds

B4: 16D5 IgG variant W96Y/K53A (HC/LC) (antibody, V domains shown)
VH: not shown
VL: B2 VL with K55A, A95S
notes: IgG
B4 was tested. Which Kd [16] did it give?
The Kd was 580 nM.

What about the Kd [17] of the same binder?
Its Kd is 660 nM.
